The results in this text go back to PMC6310132 (The Biochemical journal, 2016).

In the assay the target is N-ethylmaleimide-sensitive factor (NSF), pRSET-A fusion protein (mouse, UniProt P46460 1-744). The assay can be described thus: SPR. Background: In SPR one partner is held on a chip, and binding of the other changes the refractive index at the surface.
Sequence of N-ethylmaleimide-sensitive factor (NSF), pRSET-A fusion protein (P46460 whole entry, the tested form may be a part): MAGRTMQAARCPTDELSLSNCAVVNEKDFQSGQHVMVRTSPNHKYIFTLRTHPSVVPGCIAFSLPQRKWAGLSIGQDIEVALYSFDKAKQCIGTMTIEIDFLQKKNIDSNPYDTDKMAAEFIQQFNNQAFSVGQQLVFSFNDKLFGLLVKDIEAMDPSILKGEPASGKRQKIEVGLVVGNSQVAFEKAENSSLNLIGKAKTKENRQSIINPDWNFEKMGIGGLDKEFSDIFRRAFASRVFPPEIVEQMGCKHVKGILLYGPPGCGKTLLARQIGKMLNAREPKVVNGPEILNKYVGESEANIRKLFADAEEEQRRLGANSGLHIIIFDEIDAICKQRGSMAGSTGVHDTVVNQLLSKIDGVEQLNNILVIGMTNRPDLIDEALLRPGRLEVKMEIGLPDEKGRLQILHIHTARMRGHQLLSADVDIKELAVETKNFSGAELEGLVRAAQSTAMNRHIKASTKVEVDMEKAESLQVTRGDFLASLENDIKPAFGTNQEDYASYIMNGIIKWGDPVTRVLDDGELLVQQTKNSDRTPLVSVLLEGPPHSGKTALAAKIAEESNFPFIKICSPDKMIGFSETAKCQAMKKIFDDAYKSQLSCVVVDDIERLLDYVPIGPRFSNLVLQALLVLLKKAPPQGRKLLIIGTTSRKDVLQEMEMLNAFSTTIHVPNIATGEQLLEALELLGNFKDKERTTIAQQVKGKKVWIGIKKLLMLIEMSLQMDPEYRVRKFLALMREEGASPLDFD

B1: rat organ of Corti dopamine D1A carboxy terminus, pRSET-A fusion protein (domain or fragment, UniProt P18901 338-425, looked up)
chain: QKAFSTLLGCYRLCPTTNNAIETVSINNNGAVVFSSHHEPRGSISKDCNLVYLIPHAVGSSEDLKKEEAGGIAKPLEKLSPALSVILD
B1 gave a Kd of 12.1 nM, a koff of 0.00274 s⁻¹ and a kon of 227000 M⁻¹ s⁻¹.

Broadly, the Kd is a measure of binding affinity in units of concentration. One may read the koff as the rate constant with which the complex falls apart. Lower therefore signals a long-lived complex. The kon is the rate constant with which the complex forms.
